{
  "source": "paper PMC3471383",
  "origin": "cited, not measured here",
  "biological_target": "FcγRI (Homo sapiens) (UniProt P12314)",
  "sequence (P12314 16-292)": "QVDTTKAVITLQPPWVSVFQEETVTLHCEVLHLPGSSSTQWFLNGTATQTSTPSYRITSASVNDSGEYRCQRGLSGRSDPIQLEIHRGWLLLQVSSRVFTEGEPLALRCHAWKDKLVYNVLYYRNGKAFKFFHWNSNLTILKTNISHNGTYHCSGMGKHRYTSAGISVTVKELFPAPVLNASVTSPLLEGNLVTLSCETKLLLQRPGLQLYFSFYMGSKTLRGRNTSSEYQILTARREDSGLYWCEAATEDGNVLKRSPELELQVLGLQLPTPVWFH",
  "data": [
    {"substance": "SAP (from UniProt P02743)", "values": [
      {"measurement": "Kd", "result": 500, "unit": "nM"}
    ]}
  ]
}
